This is an account of results in patent publication US20070059320A1.

This assay addresses NADH dehydrogenase subunit 2 (ND2), native protein in brain lysates, PSD preparations, hippocampal neurons and tissues (rat) (UniProt P11662). Briefly: cell-based or functional assay.

Sequence of NADH dehydrogenase subunit 2 (ND2), native protein in brain lysates, PSD preparations, hippocampal neurons and tissues (rat) (P11662 whole entry): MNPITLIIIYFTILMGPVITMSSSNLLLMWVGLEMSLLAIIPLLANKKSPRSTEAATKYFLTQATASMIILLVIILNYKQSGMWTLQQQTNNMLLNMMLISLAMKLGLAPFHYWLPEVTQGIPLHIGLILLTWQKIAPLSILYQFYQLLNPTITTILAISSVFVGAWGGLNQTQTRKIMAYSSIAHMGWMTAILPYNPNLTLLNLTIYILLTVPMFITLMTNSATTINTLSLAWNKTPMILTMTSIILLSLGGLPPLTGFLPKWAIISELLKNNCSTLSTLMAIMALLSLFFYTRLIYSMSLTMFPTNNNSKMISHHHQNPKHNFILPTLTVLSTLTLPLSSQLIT

In turn, “Src40-58 peptide (amino acid residues 40-58 of SEQ ID NO:4)” had an NMDAR component of mEPSCs (cultured hippocampal neurons, whole-cell recording) of 56%.
